Measurements as given in the Human Domainome abundance scans (Beltran et al. 2025).
± gives the uncertainty stated by the source.

Assay: abundance fitness (aPCA) (normalised: wild type 0, dead -1); higher = more abundant; growth selection in yeast, the domain comes from the species named
Conditions: Homo sapiens
“Lipoamide acyltransferase component of branched-chain alpha-keto acid dehydrogenase complex, mitochondrial R179H, P11182” gave an abundance fitness of -0.368 ± 0.14.
“Lipoamide acyltransferase component of branched-chain alpha-keto acid dehydrogenase complex, mitochondrial V191D, P11182” gave an abundance fitness of -0.522 ± 0.092.
With “Lipoamide acyltransferase component of branched-chain alpha-keto acid dehydrogenase complex, mitochondrial S194P, P11182” the abundance fitness was -0.694 ± 0.075.
With “Lipoamide acyltransferase component of branched-chain alpha-keto acid dehydrogenase complex, mitochondrial D204Q, P11182” the abundance fitness was -0.932 ± 0.062.
“Lipoamide acyltransferase component of branched-chain alpha-keto acid dehydrogenase complex, mitochondrial E203A, P11182” gave an abundance fitness of -0.041 ± 0.042.
Work on “Lipoamide acyltransferase component of branched-chain alpha-keto acid dehydrogenase complex, mitochondrial A176R, P11182” yielded an abundance fitness of -0.143 ± 0.036.
Substance “Lipoamide acyltransferase component of branched-chain alpha-keto acid dehydrogenase complex, mitochondrial A173N, P11182” has an abundance fitness of -0.424 ± 0.14.
“Lipoamide acyltransferase component of branched-chain alpha-keto acid dehydrogenase complex, mitochondrial R178E, P11182” gave an abundance fitness of -0.022 ± 0.053.
“Lipoamide acyltransferase component of branched-chain alpha-keto acid dehydrogenase complex, mitochondrial E190S, P11182” gave an abundance fitness of -0.079 ± 0.046.
In the case of “Lipoamide acyltransferase component of branched-chain alpha-keto acid dehydrogenase complex, mitochondrial E203G, P11182”, the abundance fitness is reported as -0.089 ± 0.04.
For “Lipoamide acyltransferase component of branched-chain alpha-keto acid dehydrogenase complex, mitochondrial I186E, P11182”, the abundance fitness was -0.543 ± 0.065.
For “Lipoamide acyltransferase component of branched-chain alpha-keto acid dehydrogenase complex, mitochondrial I186M, P11182”, the abundance fitness was -0.419 ± 0.069.
Substance “Lipoamide acyltransferase component of branched-chain alpha-keto acid dehydrogenase complex, mitochondrial A176Y, P11182” has an abundance fitness of -0.16 ± 0.06.
Substance “Lipoamide acyltransferase component of branched-chain alpha-keto acid dehydrogenase complex, mitochondrial R199G, P11182” has an abundance fitness of -0.204 ± 0.036.
With “Lipoamide acyltransferase component of branched-chain alpha-keto acid dehydrogenase complex, mitochondrial G195S, P11182” the abundance fitness was -0.444 ± 0.08.
For “Lipoamide acyltransferase component of branched-chain alpha-keto acid dehydrogenase complex, mitochondrial I186H, P11182”, the abundance fitness was -0.679 ± 0.091.
Work on “Lipoamide acyltransferase component of branched-chain alpha-keto acid dehydrogenase complex, mitochondrial P175C, P11182” yielded an abundance fitness of -0.151 ± 0.062.
Substance “Lipoamide acyltransferase component of branched-chain alpha-keto acid dehydrogenase complex, mitochondrial E203V, P11182” has an abundance fitness of -0.08 ± 0.042.
Substance “Lipoamide acyltransferase component of branched-chain alpha-keto acid dehydrogenase complex, mitochondrial R199K, P11182” has an abundance fitness of -0.033 ± 0.051.
In the case of “Lipoamide acyltransferase component of branched-chain alpha-keto acid dehydrogenase complex, mitochondrial T213F, P11182”, the abundance fitness is reported as -0.222 ± 0.069.
For “Lipoamide acyltransferase component of branched-chain alpha-keto acid dehydrogenase complex, mitochondrial L201E, P11182”, the abundance fitness was -0.038 ± 0.042.
“Lipoamide acyltransferase component of branched-chain alpha-keto acid dehydrogenase complex, mitochondrial E190G, P11182” showed an abundance fitness of -0.409 ± 0.038.
For “Lipoamide acyltransferase component of branched-chain alpha-keto acid dehydrogenase complex, mitochondrial S194R, P11182”, the abundance fitness was -0.314 ± 0.037.
With “Lipoamide acyltransferase component of branched-chain alpha-keto acid dehydrogenase complex, mitochondrial G198Q, P11182” the abundance fitness was -0.301 ± 0.051.
In the case of “Lipoamide acyltransferase component of branched-chain alpha-keto acid dehydrogenase complex, mitochondrial L209A, P11182”, the abundance fitness is reported as 0.037 ± 0.043.
Work on “Lipoamide acyltransferase component of branched-chain alpha-keto acid dehydrogenase complex, mitochondrial E210C, P11182” yielded an abundance fitness of -0.048 ± 0.053.
Substance Nanos homolog 2 R73E, P60321 has an abundance fitness of 0.102 ± 0.067.
For “Lipoamide acyltransferase component of branched-chain alpha-keto acid dehydrogenase complex, mitochondrial I200V, P11182”, the abundance fitness was -0.021 ± 0.039.
For “Lipoamide acyltransferase component of branched-chain alpha-keto acid dehydrogenase complex, mitochondrial E190T, P11182”, the abundance fitness was -0.119 ± 0.047.
Work on “Lipoamide acyltransferase component of branched-chain alpha-keto acid dehydrogenase complex, mitochondrial V177G, P11182” yielded an abundance fitness of -0.289 ± 0.038.
With “Lipoamide acyltransferase component of branched-chain alpha-keto acid dehydrogenase complex, mitochondrial G195W, P11182” the abundance fitness was -1.25 ± 0.11.
Work on “Lipoamide acyltransferase component of branched-chain alpha-keto acid dehydrogenase complex, mitochondrial N185P, P11182” yielded an abundance fitness of -1.01 ± 0.17.
Substance “Lipoamide acyltransferase component of branched-chain alpha-keto acid dehydrogenase complex, mitochondrial N185I, P11182” has an abundance fitness of -0.83 ± 0.09.
With “Lipoamide acyltransferase component of branched-chain alpha-keto acid dehydrogenase complex, mitochondrial T171E, P11182” the abundance fitness was -0.268 ± 0.058.
In the case of “Lipoamide acyltransferase component of branched-chain alpha-keto acid dehydrogenase complex, mitochondrial E210K, P11182”, the abundance fitness is reported as 0.034 ± 0.072.
“Lipoamide acyltransferase component of branched-chain alpha-keto acid dehydrogenase complex, mitochondrial I186K, P11182” showed an abundance fitness of -0.533 ± 0.4.
For “Lipoamide acyltransferase component of branched-chain alpha-keto acid dehydrogenase complex, mitochondrial A173G, P11182”, the abundance fitness was -0.287 ± 0.036.
In the case of “Lipoamide acyltransferase component of branched-chain alpha-keto acid dehydrogenase complex, mitochondrial L172N, P11182”, the abundance fitness is reported as -0.127 ± 0.07.
For “Lipoamide acyltransferase component of branched-chain alpha-keto acid dehydrogenase complex, mitochondrial V192E, P11182”, the abundance fitness was 0.023 ± 0.045.
Substance “Lipoamide acyltransferase component of branched-chain alpha-keto acid dehydrogenase complex, mitochondrial L209P, P11182” has an abundance fitness of -0.226 ± 0.051.
“Lipoamide acyltransferase component of branched-chain alpha-keto acid dehydrogenase complex, mitochondrial I200F, P11182” gave an abundance fitness of -0.76 ± 0.097.
Substance “Lipoamide acyltransferase component of branched-chain alpha-keto acid dehydrogenase complex, mitochondrial K187V, P11182” has an abundance fitness of -0.139 ± 0.099.
“Lipoamide acyltransferase component of branched-chain alpha-keto acid dehydrogenase complex, mitochondrial T171W, P11182” gave an abundance fitness of -0.49 ± 0.075.
Work on “Lipoamide acyltransferase component of branched-chain alpha-keto acid dehydrogenase complex, mitochondrial K187S, P11182” yielded an abundance fitness of -0.045 ± 0.054.
For “Lipoamide acyltransferase component of branched-chain alpha-keto acid dehydrogenase complex, mitochondrial L188E, P11182”, the abundance fitness was -0.391 ± 0.048.
“Lipoamide acyltransferase component of branched-chain alpha-keto acid dehydrogenase complex, mitochondrial E210N, P11182” showed an abundance fitness of -0.061 ± 0.08.
Substance “Lipoamide acyltransferase component of branched-chain alpha-keto acid dehydrogenase complex, mitochondrial I200T, P11182” has an abundance fitness of -0.625 ± 0.06.
Substance “Lipoamide acyltransferase component of branched-chain alpha-keto acid dehydrogenase complex, mitochondrial D204G, P11182” has an abundance fitness of -0.806 ± 0.042.
“Lipoamide acyltransferase component of branched-chain alpha-keto acid dehydrogenase complex, mitochondrial E203K, P11182” gave an abundance fitness of -0.027 ± 0.055.
